Patent US20210388087A1 (Chugai, published 2021)
Changes are numbered by the printed parent chain.

B1: CE115HA000 K52bS (antibody, human IgG1, kappa, L234A L235A, N297A, name in Kabat numbering)
heavy: QVQLVESGGGVVQPGRSLRLSCAASGFTFSNAWMHWVRQAPGKGLEWVAQIKASSNNYATYYAESVKGRFTISRDDSKNSLYLQMNSLKTEDTAVYYCRYVHYGAYYGVDAWGQGTTVTVSSASTKGPSVFPLAPSSKSTSGGTAALGCLVKDYFPEPVTVSWNSGALTSGVHTFPAVLQSSGLYSLSSVVTVPSSSLGTQTYICNVNHKPSNTKVDKKVEPKSCDKTHTCPPCPAPEAAGGPSVFLFPPKPKDTLMISRTPEVTCVVVDVSHEDPEVKFNWYVDGVEVHNAKTKPREEQYASTYRVVSVLTVLHQDWLNGKEYKCKVSNKALPAPIEKTISKAKGQPREPQVYTLPPSRCELTKNQVSLSCAVKGFYPSDIAVEWESNGQPENNYKTTPPVLDSDGSFFLVSKLTVDKSRWQQGNVFSCSVMHEALHNHYTQKSLSLSPDYKDDDDK
chain: EPKSSDKTHTCPPCPAPELLGGPSVFLFPPKPKDTLMISRTPEVTCVVVDVSHEDPEVKFNWYVDGVEVHNAKTKPREEQYNSTYRVVSVLTVLHQDWLNGKEYKCKVSNKALPAPIEKTISKAKGQPREPQVCTLPPSRDELTKNQVSLWCLVKGFYPSDIAVEWESNGQPENNYKTTPPVLDSDGSFFLYSKLTVDKSRWQQGNVFSCSVMHEALHNRYTQKSLSLSP
light: DIVMTQSPLSLPVTPGEPASISCRSSQSLVHSNRNTYLHWYQQKPGQAPRLLIYKVSNRFSGVPDRFSGSGSGTDFTLKISRVEAEDVGVYYCGQGTQVPYTFGQGTKLEIKRTVAAPSVFIFPPSDEQLKSGTASVVCLLNNFYPREAKVQWKVDNALQSGNSQESVTEQDSKDSTYSLSSTLTLSKADYEKHKVYACEVTHQGLSSPVTKSFNRGEC
notes: one-arm antibody
B2: CE115HA000 N31Q (antibody, human IgG1, kappa, L234A L235A, N297A, name in Kabat numbering)
heavy: B1 heavy with N31Q, S54K
chain: B1 chain
light: B1 light
notes: one-arm antibody
B3: CE115HA000 N53W (antibody, human IgG1, kappa, L234A L235A, N297A, name in Kabat numbering)
heavy: B1 heavy with S54K, N56W
chain: B1 chain
light: B1 light
notes: one-arm antibody
B4: CE115HA000 N31I (antibody, human IgG1, kappa, L234A L235A, N297A, name in Kabat numbering)
heavy: B1 heavy with N31I, S54K
chain: B1 chain
light: B1 light
notes: one-arm antibody
B5: CE115HA000 N31A (antibody, human IgG1, kappa, L234A L235A, N297A, name in Kabat numbering)
heavy: B1 heavy with N31A, S54K
chain: B1 chain
light: B1 light
notes: one-arm antibody
B6: CE115HA000 N31Y (antibody, human IgG1, kappa, L234A L235A, N297A, name in Kabat numbering)
heavy: B1 heavy with N31Y, S54K
chain: B1 chain
light: B1 light
notes: one-arm antibody
B7: CE115HA000 N31K (antibody, human IgG1, kappa, L234A L235A, N297A, name in Kabat numbering)
heavy: B1 heavy with N31K, S54K
chain: B1 chain
light: B1 light
notes: one-arm antibody
B8: CE115HA000 K64E (antibody, human IgG1, kappa, L234A L235A, N297A, name in Kabat numbering)
heavy: B1 heavy with S54K, K67E
chain: B1 chain
light: B1 light
notes: one-arm antibody
B9: CE115HA000 K64Q (antibody, human IgG1, kappa, L234A L235A, N297A, name in Kabat numbering)
heavy: B1 heavy with S54K, K67Q
chain: B1 chain
light: B1 light
notes: one-arm antibody
B10: CE115HA000 L78I (antibody, human IgG1, kappa, L234A L235A, N297A, name in Kabat numbering)
heavy: B1 heavy with S54K, L81I
chain: B1 chain
light: B1 light
notes: one-arm antibody
B11: CE115HA000 N53H (antibody, human IgG1, kappa, L234A L235A, N297A, name in Kabat numbering)
heavy: B1 heavy with S54K, N56H
chain: B1 chain
light: B1 light
notes: one-arm antibody
B12: CE115HA000 N31G (antibody, human IgG1, kappa, L234A L235A, N297A, name in Kabat numbering)
heavy: B1 heavy with N31G, S54K
chain: B1 chain
light: B1 light
notes: one-arm antibody
B13: CE115HA000 N53Q (antibody, human IgG1, kappa, L234A L235A, N297A, name in Kabat numbering)
heavy: B1 heavy with S54K, N56Q
chain: B1 chain
light: B1 light
notes: one-arm antibody
B14: CE115HA000 N54A (antibody, human IgG1, kappa, L234A L235A, N297A, name in Kabat numbering)
heavy: B1 heavy with S54K, N57A
chain: B1 chain
light: B1 light
notes: one-arm antibody
B15: CE115HA000 N31R (antibody, human IgG1, kappa, L234A L235A, N297A, name in Kabat numbering)
heavy: B1 heavy with N31R, S54K
chain: B1 chain
light: B1 light
notes: one-arm antibody
B16: CE115HA000 N53S (antibody, human IgG1, kappa, L234A L235A, N297A, name in Kabat numbering)
heavy: B1 heavy with S54K, N56S
chain: B1 chain
light: B1 light
notes: one-arm antibody
B17: CE115HA000 K64A (antibody, human IgG1, kappa, L234A L235A, N297A, name in Kabat numbering)
heavy: B1 heavy with S54K, K67A
chain: B1 chain
light: B1 light
notes: one-arm antibody
B18: CE115HA000 N31F (antibody, human IgG1, kappa, L234A L235A, N297A, name in Kabat numbering)
heavy: B1 heavy with N31F, S54K
chain: B1 chain
light: B1 light
notes: one-arm antibody
B19: CE115HA000 N53G (antibody, human IgG1, kappa, L234A L235A, N297A, name in Kabat numbering)
heavy: B1 heavy with S54K, N56G
chain: B1 chain
light: B1 light
notes: one-arm antibody
B20: CE115HA000 N53Y (antibody, human IgG1, kappa, L234A L235A, N297A, name in Kabat numbering)
heavy: B1 heavy with S54K, N56Y
chain: B1 chain
light: B1 light
notes: one-arm antibody
B21: CE115HA000 N31H (antibody, human IgG1, kappa, L234A L235A, N297A, name in Kabat numbering)
heavy: B1 heavy with N31H, S54K
chain: B1 chain
light: B1 light
notes: one-arm antibody
B22: CE115HA000 N31D (antibody, human IgG1, kappa, L234A L235A, N297A, name in Kabat numbering)
heavy: B1 heavy with N31D, S54K
chain: B1 chain
light: B1 light
notes: one-arm antibody
B23: CE115HA000 K64D (antibody, human IgG1, kappa, L234A L235A, N297A, name in Kabat numbering)
heavy: B1 heavy with S54K, K67D
chain: B1 chain
light: B1 light
notes: one-arm antibody
B24: CE115HA000 K64S (antibody, human IgG1, kappa, L234A L235A, N297A, name in Kabat numbering)
heavy: B1 heavy with S54K, K67S
chain: B1 chain
light: B1 light
notes: one-arm antibody
B25: CE115HA000 N53A (antibody, human IgG1, kappa, L234A L235A, N297A, name in Kabat numbering)
heavy: B1 heavy with S54K, N56A
chain: B1 chain
light: B1 light
notes: one-arm antibody
B26: CE115HA000 N53I (antibody, human IgG1, kappa, L234A L235A, N297A, name in Kabat numbering)
heavy: B1 heavy with S54K, N56I
chain: B1 chain
light: B1 light
notes: one-arm antibody
B27: CE115HA000 K52bY (antibody, human IgG1, kappa, L234A L235A, N297A, name in Kabat numbering)
heavy: B1 heavy with S54Y
chain: B1 chain
light: B1 light
notes: one-arm antibody
B28: CE115HA000 K75T (antibody, human IgG1, kappa, L234A L235A, N297A, name in Kabat numbering)
heavy: B1 heavy with S54K, K78T
chain: B1 chain
light: B1 light
notes: one-arm antibody
B29: CE115HA000 N53D (antibody, human IgG1, kappa, L234A L235A, N297A, name in Kabat numbering)
heavy: B1 heavy with S54K, N56D
chain: B1 chain
light: B1 light
notes: one-arm antibody
B30: CE115HA000 K75R (antibody, human IgG1, kappa, L234A L235A, N297A, name in Kabat numbering)
heavy: B1 heavy with S54K, K78R
chain: B1 chain
light: B1 light
notes: one-arm antibody
B31: CE115HA000 N53K (antibody, human IgG1, kappa, L234A L235A, N297A, name in Kabat numbering)
heavy: B1 heavy with S54K, N56K
chain: B1 chain
light: B1 light
notes: one-arm antibody
B32: CE115HA000 N31S (antibody, human IgG1, kappa, L234A L235A, N297A, name in Kabat numbering)
heavy: B1 heavy with N31S, S54K
chain: B1 chain
light: B1 light
notes: one-arm antibody
B33: CE115HA000 N31W (antibody, human IgG1, kappa, L234A L235A, N297A, name in Kabat numbering)
heavy: B1 heavy with N31W, S54K
chain: B1 chain
light: B1 light
notes: one-arm antibody

target: T1, CD3 epsilon homodimer protein (UniProt P07766 23-126); test: SPR, CD3 epsilon homodimer on chip, one-arm antibody as analyte;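 further: surface plasmon resonance at 25 °C with CD3 epsilon homodimer amine-coupled to a CM4 sensor chip, antibody injected as analyte, HBS-EP+ as running buffer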
T1 construct: also called CD3 (CD3 epsilon)
T1 sequence (P07766 23-126): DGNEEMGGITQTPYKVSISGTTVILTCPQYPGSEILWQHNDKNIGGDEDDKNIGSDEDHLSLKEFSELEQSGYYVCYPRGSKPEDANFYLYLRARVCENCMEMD

KD ratio (KD of CE115HA000/KD of altered form) | Binder
0.58 | B1
0.94 | B2
0.69 | B3
0.62 | B4
0.96 | B5
1.1 | B6
0.97 | B7
0.84 | B8
0.87 | B9
1.08 | B10
0.55 | B11
1.37 | B12
1.05 | B13
0.58 | B14
0.98 | B15
0.59 | B16
0.81 | B17

KD ratio (KD of CE115HA000/KD of altered form) | Binder
1.24 | B18
0.95 | B19
0.94 | B20
0.96 | B21
1.14 | B22
0.76 | B23
0.85 | B24
0.55 | B25
0.57 | B26
0.61 | B27
0.75 | B28
0.55 | B29
0.88 | B30
0.79 | B31
0.67 | B32
1.07 | B33
